Test results reported in patent US20250368754A1 (KANAPH THERAPEUTICS, published 2025).

T1: human FAP on HEK293-hFAP cells (human, UniProt Q12884 1-760)
T1 construct: whole, on cells; also called human FAP-expressing cell line
T1 sequence (looked up): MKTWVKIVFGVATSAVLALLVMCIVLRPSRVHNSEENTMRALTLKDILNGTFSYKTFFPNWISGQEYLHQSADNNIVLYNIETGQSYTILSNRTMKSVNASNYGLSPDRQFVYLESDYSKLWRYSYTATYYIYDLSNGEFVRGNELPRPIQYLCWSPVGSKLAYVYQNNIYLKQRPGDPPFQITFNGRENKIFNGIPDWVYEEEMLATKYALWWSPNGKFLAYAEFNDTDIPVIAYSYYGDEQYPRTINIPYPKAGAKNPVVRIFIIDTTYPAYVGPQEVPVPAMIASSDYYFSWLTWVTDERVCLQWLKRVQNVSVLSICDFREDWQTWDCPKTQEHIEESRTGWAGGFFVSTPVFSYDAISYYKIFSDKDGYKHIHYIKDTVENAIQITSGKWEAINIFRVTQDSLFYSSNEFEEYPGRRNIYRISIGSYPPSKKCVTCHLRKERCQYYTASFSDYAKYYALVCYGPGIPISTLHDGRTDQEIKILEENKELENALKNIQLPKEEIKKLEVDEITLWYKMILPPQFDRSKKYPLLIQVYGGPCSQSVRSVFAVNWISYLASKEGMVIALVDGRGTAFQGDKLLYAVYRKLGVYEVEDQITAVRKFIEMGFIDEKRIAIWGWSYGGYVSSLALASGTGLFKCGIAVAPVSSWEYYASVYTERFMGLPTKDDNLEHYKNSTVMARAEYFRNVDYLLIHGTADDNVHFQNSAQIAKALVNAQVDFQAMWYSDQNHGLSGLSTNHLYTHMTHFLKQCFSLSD

T2: recombinant human herpes virus entry mediator (HVEM) (human, UniProt Q92956 39-202)
T2 construct: neither construct is described; also called human HVEM; recombinant human HVEM protein (R&D systems)
T2 sequence (looked up): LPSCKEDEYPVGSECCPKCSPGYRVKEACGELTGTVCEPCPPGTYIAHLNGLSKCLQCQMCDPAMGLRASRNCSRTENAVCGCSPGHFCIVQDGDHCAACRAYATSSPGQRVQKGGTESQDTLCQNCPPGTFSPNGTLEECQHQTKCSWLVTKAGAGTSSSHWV

B1: T3.06 (anti-hu FAP/hu scLIGHT3(195-198), hu IgG1 DANG) (bispecific antibody)
heavy: QVQLVQSGAEVKKPGASVKVSCKTSRYTFTEYTIHWVRQAPGQRLEWIGGINPNNGIPNYNQKFKGRVTITVDTSASTAYMELSSLRSEDTAVYYCARRRIAYGYDEGHAMDYWGQGTLVTVSSASTKGPSVFPLAPSSKSTSGGTAALGCLVKDYFPEPVTVSWNSGALTSGVHTFPAVLQSSGLYSLSSVVTVPSSSLGTQTYICNVNHKPSNTKVDKKVEPKSCDKTHTCPPCPAPELLGGPSVFLFPPKPKDTLMISRTPEVTCVVVAVSHEDPEVKFNWYVDGVEVHNAKTKPREEQYGSTYRVVSVLTVLHQDWLNGKEYKCKVSNKALPAPIEKTISKAKGQPREPQVYTLPPSRDELTKNQVSLWCLVKGFYPSDIAVEWESNGQPENNYKTTPPVLDSDGSFFLYSKLTVDKSRWQQGNVFSCSVMHEALHNHYTQKSLSLSPGK
light: not shown
chain: not shown
notes: Knob-into-hole
B2: T3.05 (anti-hu FAP/hu scLIGHT3(226-231), hu IgG1 DANG) (bispecific antibody)
heavy: B1 heavy
light: not shown
chain: not shown
notes: Knob-into-hole
B3: T3.15 (anti-hu FAP/hu scLIGHT-LIGHT(L118K, G119E)2, hu IgG1 DANG) (bispecific antibody)
heavy: B1 heavy
light: not shown
chain: not shown
B4: T3.17 (anti-hu FAP/hu scLIGHT(195-198)-LTb2, hu IgG1 DANG) (bispecific antibody)
heavy: B1 heavy
light: not shown
chain: not shown
notes: Knob-into-hole
B5: T3.16 (anti-hu FAP/hu scLIGHT(226-231)-LTb2, hu IgG1 DANG) (bispecific antibody)
heavy: B1 heavy
light: not shown
chain: not shown
notes: Knob-into-hole

Experiments:
[1] = target: T1, human FAP on HEK293-hFAP cells; test: flow cytometry on HEK293-hFAP cells, 1 ug protein per 1x10^5 cells, anti-human IgG detection (axis TMEkine-PE)
Experimental: (§1) Specifically, the cell line was prepared by suspending in a FACS buffer solution at 1×10⁵ cells/100 μL, and treated with 1 μg each of T3.10, T3.01, T3.05, T3.06, T3.14, and T3.18. The cells were washed twice with a FACS buffer solution. The cells were stained with an anti-human IgG antibody (Biolegend). The negative control sample was stained only with an anti-human IgG antibody (Biolegend). The expression ratio of the stained cells was measured using BD LSR and analyzed using FlowJo software.

[2] = target: T1, human FAP on HEK293-hFAP cells; test: flow cytometry on HEK293-hFAP cells, 1 µg protein, anti-human IgG detection
Experimental: as §1

[3] = target: T2, recombinant human herpes virus entry …; test: sandwich ELISA: plate coated with recombinant human HVEM 1 ug/mL, fusion protein from 1 nM in serial dilution, detected with biotinylated recombinant human FAP and streptavidin conjugate, OD 450 nm
Experimental: Considering that LIGHT of the fusion protein must bind to the herpes virus entry mediator (HVEM) for the action, it was confirmed that T3.01 binds to the recombinant human HVEM, as follows: [0370] (i) The recombinant human HVEM protein (R&D systems) was suspended at 1 μg/mL, dispensed in a 96-well immune plate, and treated for 24 hours. [0371] (ii) The wells were washed with a wash solution, and then blocking was performed for 1 hour with 1% BSA (bovine serum albumin, Sigma) solution. [0372] (iii) The wells were washed with a wash solution, and then T3.01, T3.14, T3.16, T3.17, T3.18 and T3.10, or T3.05, T3.06, T3.04, T3.14 and T3.10 were suspended at 1 nM and diluted by serial dilution. The wells were treated with the diluted T3.01, T3.14, T3.16, T3.17, T3.18 and T3.10, or T3.05, T3.06, T3.04, T3.14 and T3.10 for 2 hours. [0373] (iv) The wells were washed with a wash solution, and then treated with the human recombinant FAP-biotin diluted at 0.5 μg/mL for 2 hours. [0374] (v) The wells were washed with a wash solution, and then treated with streptavidin-RP for 20 minutes. [0375] (vi) The wells were washed with a wash solution, and then treated with a substrate solution for 20 minutes. [0376] (vii) The wells were treated with a stop solution, and the absorbance was measured at 450 nm.

[4] = target: human LTβR on A375 cells (human, UniProt P36941 31-435); test: cell-based or functional assay
Sequence of human LTβR on A375 cells (P36941 31-435): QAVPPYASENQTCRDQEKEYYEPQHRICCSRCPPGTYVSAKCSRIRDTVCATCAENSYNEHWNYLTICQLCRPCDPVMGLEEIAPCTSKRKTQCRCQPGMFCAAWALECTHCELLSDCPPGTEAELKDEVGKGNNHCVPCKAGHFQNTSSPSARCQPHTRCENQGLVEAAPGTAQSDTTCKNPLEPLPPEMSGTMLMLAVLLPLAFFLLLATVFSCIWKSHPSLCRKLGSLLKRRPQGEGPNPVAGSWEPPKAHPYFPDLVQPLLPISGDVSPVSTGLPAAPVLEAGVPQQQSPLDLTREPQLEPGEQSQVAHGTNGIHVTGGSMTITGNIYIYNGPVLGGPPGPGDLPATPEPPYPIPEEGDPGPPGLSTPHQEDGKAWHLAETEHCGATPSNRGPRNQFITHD

| Binder | percent of cells in the positive gate [1] | percent of cells bound [2] | binding result [3] | IL-8 secretion of A375 cells, EC50 (FIG. 15a) [4] |
| --- | --- | --- | --- | --- |
| B1 | 100% | ≥ 99% | – | – |
| B2 | 99.8% | ≥ 99% | no binding (tested: 1000 pM) | – |
| B3 | – | – | – | 3.79 nM |
| B4 | – | – | no binding (tested: 1000 pM) | – |
| B5 | – | – | no binding (tested: 1000 pM) | – |
